Measured values as given in article PMC9352680, “A comprehensive thermodynamic model for RNA binding by the Saccharomyces cerevisiae Pumilio protein PUF4”.
Where a chain is given by its changes, count along the chain named. In names and notes the source's numbering stands.

T1: PUF4 RNA-binding domain (Saccharomyces cerevisiae, UniProt P25339 537-888)
T1 sequence: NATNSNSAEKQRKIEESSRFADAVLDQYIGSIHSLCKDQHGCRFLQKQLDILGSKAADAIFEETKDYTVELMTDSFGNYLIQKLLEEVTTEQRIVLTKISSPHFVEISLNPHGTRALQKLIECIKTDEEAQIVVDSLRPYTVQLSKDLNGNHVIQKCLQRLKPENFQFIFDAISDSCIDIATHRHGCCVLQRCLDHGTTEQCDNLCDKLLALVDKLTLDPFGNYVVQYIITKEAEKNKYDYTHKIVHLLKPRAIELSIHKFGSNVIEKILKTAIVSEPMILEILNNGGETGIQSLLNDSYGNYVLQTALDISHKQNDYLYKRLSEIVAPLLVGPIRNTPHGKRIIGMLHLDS

B1: Ic_S2_P5E.1_K5.1_C5.1_H5.1_A5.1_[T6C]_F5.1_[T8G]_[A10C]_T5.1 (ssRNA)
RNA: UUUGAUUAAUAUGAUAUCGUUCUUUCUUGUAUCAGUCUUCUUUCUCGAUAUCAUAUUAAUCUUU
B2: Ic_S2_P5E.1_K5.1_C5.1_H5.1_A5.1_[T6C]_[A7C]_F5.1_[T9A]_[A10T]_T5.1 (ssRNA)
RNA: B1 RNA with A34C, G35U, U36A, C37U
B3: Ic_S2_P5E.1_K5.1_C5.1_H5.1_A5.1_[T5C]_[A7C]_F5.1_[T8C]_[T9C]_[A10T]_T5.1 (ssRNA)
RNA: B1 RNA with U32C, C33U, A34C, G35C, U36C, C37U
B4: Ic_S2_P5E.1_K5.1_C5.1_H5.1_A5.1_[T5A]_[T6A]_F5.1_[T9C]_[A10T]_T5.1 (ssRNA)
RNA: B1 RNA with U32A, C33A, G35U, U36C, C37U
B5: Ic_S2_P5E.1_K5.1_C5.1_H5.1_A5.1_[T5A]_[A7T]_F5.1_[T8A]_[A10C]_T5.1 (ssRNA)
RNA: B1 RNA with U32A, C33U, A34U, G35A
B6: Ic_S2_P5E.1_K5.1_C5.1_H5.1_A5.1_[T5C]_[T6G]_[A7T]_F5.1_[T8C]_[A10G]_T5.1 (ssRNA)
RNA: B1 RNA with U32C, C33G, A34U, G35C, C37G
B7: Ic_S2_P5E.1_K5.1_C5.1_H5.1_A5.1_[T5C]_[A7T]_F5.1_[T8C]_[T9C]_[A10C]_T5.1 (ssRNA)
RNA: B1 RNA with U32C, C33U, A34U, G35C, U36C
B8: Ic_S2_P5E.1_K5.1_C5.1_H5.1_A5.1_[T6A]_[A7C]_F5.1_[T8C]_[T9G]_[A10G]_T5.1 (ssRNA)
RNA: B1 RNA with C33A, A34C, G35C, U36G, C37G
B9: Ic_S2_P5E.1_K5.1_C5.1_H5.1_A5.1_[T6C]_[A7G]_F5.1_[T8C]_[T9C]_[A10T]_T5.1 (ssRNA)
RNA: B1 RNA with A34G, G35C, U36C, C37U
B10: Ic_S2_P5E.1_K5.1_C5.1_H5.1_A5.1_[T5A]_[T6C]_[A7G]_F5.1_[T8G]_[T9C]_[A10C]_T5.1 (ssRNA)
RNA: B1 RNA with U32A, A34G, U36C
B11: Ic_S2_P5E.1_K5.1_C5.1_H5.1_A5.1_[A7C]_F5.1_[T9G]_[A10G]_T5.1 (ssRNA)
RNA: B1 RNA with C33U, A34C, G35U, U36G, C37G
B12: Ic_S2_P5E.1_K5.1_C5.1_H5.1_A5.1_[T5A]_F5.1_[T8C]_[T9G]_[A10C]_T5.1 (ssRNA)
RNA: B1 RNA with U32A, C33U, G35C, U36G
B13: Ic_S2_P5E.1_K5.1_C5.1_H5.1_A5.1_[T5A]_[T6A]_F5.1_[T8C]_[T9A]_[A10C]_T5.1 (ssRNA)
RNA: B1 RNA with U32A, C33A, G35C, U36A
B14: Ic_S2_P5E.1_K5.1_C5.1_H5.1_A5.1_[T5A]_[T6C]_[A7T]_F5.1_[T8A]_[T9A]_T5.1 (ssRNA)
RNA: B1 RNA with U32A, A34U, G35A, U36A, C37A
B15: Ic_S2_P5E.1_K5.1_C5.1_H5.1_A5.1_[T5G]_[A7T]_F5.1_[T8C]_[A10T]_T5.1 (ssRNA)
RNA: B1 RNA with U32G, C33U, A34U, G35C, C37U
B16: Ic_S2_P5E.1_K5.1_C5.1_H5.1_A5.1_[T6G]_[A7G]_F5.1_[T8C]_[A10C]_T5.1 (ssRNA)
RNA: B1 RNA with C33G, A34G, G35C
B17: Ic_S2_P5E.1_K5.1_C5.1_H5.1_A5.1_[T6C]_[A7T]_F5.1_[T8A]_[T9C]_[A10G]_T5.1 (ssRNA)
RNA: B1 RNA with A34U, G35A, U36C, C37G
B18: Ic_S2_P5E.1_K5.1_C5.1_H5.1_A5.1_[T6A]_[A7T]_F5.1_[T8C]_[T9G]_[A10G]_T5.1 (ssRNA)
RNA: B1 RNA with C33A, A34U, G35C, U36G, C37G
B19: Ic_S2_P5E.1_K5.1_C5.1_H5.1_A5.1_[T5C]_[T6A]_[A7T]_F5.1_[T8C]_[T9G]_[A10G]_T5.1 (ssRNA)
RNA: B1 RNA with U32C, C33A, A34U, G35C, U36G, C37G
B20: Ic_S2_P5E.1_K5.1_C5.1_H5.1_A5.1_[T5A]_[T6A]_[A7T]_F5.1_[T8A]_[T9C]_[A10G]_T5.1 (ssRNA)
RNA: B1 RNA with U32A, C33A, A34U, G35A, U36C, C37G
B21: Ic_S2_P5E.1_K5.1_C5.1_H5.1_A5.1_[T6A]_[A7T]_F5.1_[T8C]_[T9C]_[A10T]_T5.1 (ssRNA)
RNA: B1 RNA with C33A, A34U, G35C, U36C, C37U
B22: Ic_S2_P5E.1_K5.1_C5.1_H5.1_A5.1_[T6G]_[A7T]_F5.1_[T8C]_[T9A]_[A10T]_T5.1 (ssRNA)
RNA: B1 RNA with C33G, A34U, G35C, U36A, C37U

Molecular target: T1, PUF4 RNA-binding domain
Assay: Mg; RNA-MaP; 20 mM Na-HEPES pH 7.4, 30 mM KOAc, 0.75 mM MgCl2, 0.1% Tween-20, 5% glycerol, 0.1 mg/mL BSA, 2 mM DTT; 25 C; 0.0125-409.6 nM protein
Settings: tags: N-His6-TEV cleaved; C-SNAP kept, Cy3B-labelled; label: tethered on chip by stalled RNA polymerase

Binder | Kd [nM]
UCUCUUUUUAUAUUGUCUCUU (ssRNA) [Ib_S1_P4E.1_K4.1_C4.1_H4.1_[G2T]_A4.1_F4.1_[A9G]_T4.1] | > 2300
B1 | 218
B2 | 1.14
B3 | 104
B4 | 81.5
B5 | 113
B6 | 1250
B7 | 149
B8 | 82
B9 | 463
B10 | > 2300
UCUCUUUAUAUAUUGUCUCUU (ssRNA) [Ib_S1_P4E.1_K4.1_C4.1_H4.1_[G2A]_A4.1_F4.1_[A9G]_T4.1] | 334
B11 | 23.5
B12 | 1050
B13 | 128
B14 | 129
B15 | 126
B16 | 543
B17 | 26.1
B18 | 49.1
B19 | 315
B20 | 52
UCUCUUUAUAUAUUCUCUCUU (ssRNA) [Ib_S1_P4E.1_K4.1_C4.1_H4.1_[G2A]_A4.1_F4.1_[A9C]_T4.1] | 857
B21 | 10.3
B22 | 64
